Assay results published in US20130089893A1.

Experiments:
[1] = target: heat-aggregated IgG (HAGG); test: cell-based or functional assay
[2] = target: human IgG monomer (Sandoglobulin, Novartis) (human); test: BIAcore equilibrium binding over immobilised IgG (Sandoglobulin)
[3] = target: dimer-IgG (Wright et al., 1980); test: flow cytometry: inhibition of dimer-IgG binding to human neutrophils
[4] = target: heat-aggregated IgG (HAGG); test: flow cytometry: inhibition of HAGG binding to human FcγRIIb on IIA1.6 cells
[5] = target: heat-aggregated IgG (HAGG); test: BIAcore equilibrium binding over immobilised HAGG; two-binding site model, KD1
[6] = target: heat-aggregated IgG (HAGG); test: BIAcore equilibrium binding over immobilised HAGG; two-binding site model, KD2
[7] = target: heat-aggregated IgG (HAGG); test: BIAcore equilibrium binding over immobilised HAGG; KD1 against the monomer's KD
[8] = target: human IgG monomer (Sandoglobulin, Novartis) (human); test: BIAcore equilibrium binding over immobilised human IgG monomer; two-binding site model, KD1
[9] = target: human IgG monomer (Sandoglobulin, Novartis) (human); test: BIAcore equilibrium binding over immobilised human IgG monomer; two-binding site model, KD2
[10] = target: dimer-IgG (Wright et al., 1980); test: flow cytometry: inhibition of dimer-IgG binding to neutrophils from two different individuals
[11] = target: human IgG monomer (Sandoglobulin, Novartis) (human); test: BIAcore equilibrium binding over immobilised IgG (Sandoglobulin), rounded value of the discussion
[12] = target: dimer-IgG (Wright et al., 1980); test: flow cytometry, inhibition of dimer-IgG binding to human neutrophils (volunteer V1, Fcγ receptors m8) by purified rsFcγRIIa dimer
[13] = target: heat-aggregated IgG (HAGG); test: BIAcore equilibrium binding, receptor injected over immobilised HAGG; single-binding site
[14] = target: human IgG monomer (Sandoglobulin, Novartis) (human); test: BIAcore equilibrium binding, receptor injected over immobilised human IgG monomer (Sandoglobulin); single-binding site
[15] = target: ovalbumin-anti-ovalbumin immune complexes (OVA ICs); test: cell-based or functional assay

Substance	IC50, HAGG-induced CD62P upregulation on human platelets [1] [mg/L]	fold potency against rsFcγRIIa monomer, HAGG-induced platelet activation [1] [fold]	fold greater avidity than the monomeric receptor [2] [fold]	IC50 [3] [mg/L]	fold more active than rsFcγRIIa monomer [3] [fold]	IC50 [4] [mg/L]	fold more potent than the monomer protein [4] [fold]	Kd [5] [µM]	Kd [6] [µM]	fold lesser KD than monomeric rsFcγRIIa [7] [fold]	Kd [8] [µM]	Kd [9] [µM]	IC50 [10] [mg/L]	Kd [11] [µM]	IC50 [12] [mg/L]	Kd [13] [µM]	Kd [14] [µM]	IC50, TNF-α release from MC/9 cells induced by OVA ICs [15] [mg/L]
recombinant soluble FcγRIIa dimer (rsFcγRIIa dimer), head to tail homodimer construct of FIG. 1 (from UniProt P12318 34-215) (receptor)	3.9	5	300	1.1	10	0.0039	> 500	0.00273	0.099	300	0.0032	0.1	0.9 to 1.1	0.003	0.9	–	–	–
recombinant soluble FcγRIIa monomer (rsFcγRIIa monomer), expressed from pBAR426 in HEK 293E cells (from UniProt P12318 34-217) (receptor)	–	–	–	10.5	–	–	–	–	–	–	–	–	–	1	–	1.05	1.7	–
rsFcγRIIa monomer (R&D Systems, Cat #1330-CD/CF) (from UniProt P12318 36-218) (receptor)	20.9	–	–	–	–	2.08	–	–	–	–	–	–	–	–	–	–	–	17.7
